Our source for the Increased relative affinity values is patent US20240189443A1, “PD-L1 AND TLR7 DOUBLE-TARGETING NANOBODY COUPLING DRUG AND USE THEREOF IN ANTI-TUMOR” (SHANGHAI INSTITUTE OF MATERIA MEDICA, CHINESE ACADEMY OF …, priority 2021, published 2024).

B1: h_Nb1_G99R (VHH)
VHH: DVQLQESGGGLVQPGGSLRLSCAASGFTFSSYAMSWVRQAPGKGLEWVSDINSGGDNTDYADSVKGRFTISRDNAKNTLYLQMNSLKPEDTAVYYCARRPKLCFSSWGQGTQVTVSS
notes: also called 103
B2: h_Nb1_G99Q (VHH)
VHH: DVQLQESGGGLVQPGGSLRLSCAASGFTFSSYAMSWVRQAPGKGLEWVSDINSGGDNTDYADSVKGRFTISRDNAKNTLYLQMNSLKPEDTAVYYCARQPKLCFSSWGQGTQVTVSS
notes: also called 104
B3: h_Nb1_G99Y (VHH)
VHH: DVQLQESGGGLVQPGGSLRLSCAASGFTFSSYAMSWVRQAPGKGLEWVSDINSGGDNTDYADSVKGRFTISRDNAKNTLYLQMNSLKPEDTAVYYCARYPKLCFSSWGQGTQVTVSS
notes: also called 106
B4: h_Nb1_D59F (VHH)
VHH: DVQLQESGGGLVQPGGSLRLSCAASGFTFSSYAMSWVRQAPGKGLEWVSDINSGGDNTFYADSVKGRFTISRDNAKNTLYLQMNSLKPEDTAVYYCARGPKLCFSSWGQGTQVTVSS
notes: also called 97
B5: h_Nb1_G99W (VHH)
VHH: DVQLQESGGGLVQPGGSLRLSCAASGFTFSSYAMSWVRQAPGKGLEWVSDINSGGDNTDYADSVKGRFTISRDNAKNTLYLQMNSLKPEDTAVYYCARWPKLCFSSWGQGTQVTVSS
notes: also called 105
B6: h_Nb1_D59M (VHH)
VHH: DVQLQESGGGLVQPGGSLRLSCAASGFTFSSYAMSWVRQAPGKGLEWVSDINSGGDNTMYADSVKGRFTISRDNAKNTLYLQMNSLKPEDTAVYYCARGPKLCFSSWGQGTQVTVSS
notes: also called 96
B7: h_Nb1_A61Q (VHH)
VHH: DVQLQESGGGLVQPGGSLRLSCAASGFTFSSYAMSWVRQAPGKGLEWVSDINSGGDNTDYQDSVKGRFTISRDNAKNTLYLQMNSLKPEDTAVYYCARGPKLCFSSWGQGTQVTVSS
notes: also called 93
B8: h_Nb1_C103W (VHH)
VHH: DVQLQESGGGLVQPGGSLRLSCAASGFTFSSYAMSWVRQAPGKGLEWVSDINSGGDNTDYADSVKGRFTISRDNAKNTLYLQMNSLKPEDTAVYYCARGPKLWFSSWGQGTQVTVSS
B9: h_Nb1_C103K (VHH)
VHH: DVQLQESGGGLVQPGGSLRLSCAASGFTFSSYAMSWVRQAPGKGLEWVSDINSGGDNTDYADSVKGRFTISRDNAKNTLYLQMNSLKPEDTAVYYCARGPKLKFSSWGQGTQVTVSS
notes: also called 100
B10: h_Nb1_D59R (VHH)
VHH: DVQLQESGGGLVQPGGSLRLSCAASGFTFSSYAMSWVRQAPGKGLEWVSDINSGGDNTRYADSVKGRFTISRDNAKNTLYLQMNSLKPEDTAVYYCARGPKLCFSSWGQGTQVTVSS
notes: also called 95
B11: h_Nb1_D62W (VHH)
VHH: DVQLQESGGGLVQPGGSLRLSCAASGFTFSSYAMSWVRQAPGKGLEWVSDINSGGDNTDYAWSVKGRFTISRDNAKNTLYLQMNSLKPEDTAVYYCARGPKLCFSSWGQGTQVTVSS
notes: also called 98
B12: h_Nb1_A61N (VHH)
VHH: DVQLQESGGGLVQPGGSLRLSCAASGFTFSSYAMSWVRQAPGKGLEWVSDINSGGDNTDYNDSVKGRFTISRDNAKNTLYLQMNSLKPEDTAVYYCARGPKLCFSSWGQGTQVTVSS
notes: also called 92
B13: h_Nb1_D62Y (VHH)
VHH: DVQLQESGGGLVQPGGSLRLSCAASGFTFSSYAMSWVRQAPGKGLEWVSDINSGGDNTDYAYSVKGRFTISRDNAKNTLYLQMNSLKPEDTAVYYCARGPKLCFSSWGQGTQVTVSS
notes: also called 99
B14: h_Nb1_A61K (VHH)
VHH: DVQLQESGGGLVQPGGSLRLSCAASGFTFSSYAMSWVRQAPGKGLEWVSDINSGGDNTDYKDSVKGRFTISRDNAKNTLYLQMNSLKPEDTAVYYCARGPKLCFSSWGQGTQVTVSS
notes: also called 94
B15: h_Nb1_C103M (VHH)
VHH: DVQLQESGGGLVQPGGSLRLSCAASGFTFSSYAMSWVRQAPGKGLEWVSDINSGGDNTDYADSVKGRFTISRDNAKNTLYLQMNSLKPEDTAVYYCARGPKLMFSSWGQGTQVTVSS
B16: h_Nb2_G30R (VHH)
VHH: DVQLQESGGGLVQPGGSLRLSCAASGFTFRDRWMYWLRQAPGKGLEWVSSINPAGRSTYYADSVKGRFTISRDNAKNTLYLQMNSLKSEDTAVYYCTKDPGGYQKGQGTQVTVSS
notes: also called 107
B17: h_Nb2_G30F (VHH)
VHH: DVQLQESGGGLVQPGGSLRLSCAASGFTFFDRWMYWLRQAPGKGLEWVSSINPAGRSTYYADSVKGRFTISRDNAKNTLYLQMNSLKSEDTAVYYCTKDPGGYQKGQGTQVTVSS
notes: also called 108
B18: h_Nb2_G101W (VHH)
VHH: DVQLQESGGGLVQPGGSLRLSCAASGFTFGDRWMYWLRQAPGKGLEWVSSINPAGRSTYYADSVKGRFTISRDNAKNTLYLQMNSLKSEDTAVYYCTKDPWGYQKGQGTQVTVSS
notes: also called 111
B19: h_Nb2_F29W (VHH)
VHH: DVQLQESGGGLVQPGGSLRLSCAASGFTWGDRWMYWLRQAPGKGLEWVSSINPAGRSTYYADSVKGRFTISRDNAKNTLYLQMNSLKSEDTAVYYCTKDPGGYQKGQGTQVTVSS
notes: also called 114
B20: h_Nb2_G30W (VHH)
VHH: DVQLQESGGGLVQPGGSLRLSCAASGFTFWDRWMYWLRQAPGKGLEWVSSINPAGRSTYYADSVKGRFTISRDNAKNTLYLQMNSLKSEDTAVYYCTKDPGGYQKGQGTQVTVSS
notes: also called 109
B21: h_Nb2_G101R (VHH)
VHH: DVQLQESGGGLVQPGGSLRLSCAASGFTFGDRWMYWLRQAPGKGLEWVSSINPAGRSTYYADSVKGRFTISRDNAKNTLYLQMNSLKSEDTAVYYCTKDPRGYQKGQGTQVTVSS
notes: also called 110
B22: h_Nb2_P100E (VHH)
VHH: DVQLQESGGGLVQPGGSLRLSCAASGFTFGDRWMYWLRQAPGKGLEWVSSINPAGRSTYYADSVKGRFTISRDNAKNTLYLQMNSLKSEDTAVYYCTKDEGGYQKGQGTQVTVSS
B23: h_Nb2_F29R (VHH)
VHH: DVQLQESGGGLVQPGGSLRLSCAASGFTRGDRWMYWLRQAPGKGLEWVSSINPAGRSTYYADSVKGRFTISRDNAKNTLYLQMNSLKSEDTAVYYCTKDPGGYQKGQGTQVTVSS
notes: also called 113

For one assay, the target named is T1, PD-L1 (human PD-L1 protein of the ELISA of Example 16) (human, UniProt Q9NZQ7 19-238, limits assumed). Put plainly: ELISA; affinity relative to original antibody h_Nb1 VHH (SEQ ID NO.21). On the technique in general: An ELISA detects its analyte on a solid surface through an enzyme-linked reagent.
T1 sequence (Q9NZQ7 19-238 limits assumed): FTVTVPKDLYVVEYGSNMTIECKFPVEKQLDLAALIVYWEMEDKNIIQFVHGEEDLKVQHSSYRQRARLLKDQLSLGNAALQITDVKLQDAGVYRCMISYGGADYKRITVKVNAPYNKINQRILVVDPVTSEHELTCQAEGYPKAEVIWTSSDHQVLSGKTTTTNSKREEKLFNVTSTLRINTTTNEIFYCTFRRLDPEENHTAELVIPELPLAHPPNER
B1 yielded an Increased relative affinity of 12.1 relative.

In the case of B2, the Increased relative affinity is 6.16 relative.

The molecule B3 had an Increased relative affinity of 7.02 relative.

Regarding B4, the Increased relative affinity amounted to 5.12 relative.

As for B5, the Increased relative affinity amounted to 6.16 relative.

As to B6, the Increased relative affinity is 4.9 relative.

Molecule B7 showed an Increased relative affinity of 4.66 relative.

B8: the Increased relative affinity turned out to be 3.83 relative.

As to B9, the Increased relative affinity came out at 3.31 relative.

B10 showed an Increased relative affinity of 4.28 relative.

Regarding B11, the Increased relative affinity was 11.7 relative.

On to B12, for which the Increased relative affinity turned out to be 5.13 relative.

Consider B13, for which the Increased relative affinity was 5.8 relative.

B14 showed an Increased relative affinity of 4.12 relative.

Regarding B15, the Increased relative affinity stood at 3.38 relative.

In another assay the target is T1, PD-L1 (human PD-L1 protein of the ELISA …). The assay is described as follows: ELISA; affinity relative to original antibody h_Nb2 VHH (SEQ ID NO.25).
Molecule B16 yielded an Increased relative affinity of 6.23 relative.

The molecule B17 showed an Increased relative affinity of 5.11 relative.

In turn, B18 registered an Increased relative affinity of 5.92 relative.

Take B19: the Increased relative affinity was found to be 1.44 relative.

The molecule B20 came in with an Increased relative affinity of 10 relative.

B21 gave an Increased relative affinity of 6.5 relative.

B22 displayed an Increased relative affinity of 3.98 relative.

With B23, the Increased relative affinity turned out to be 1.46 relative.
